Consider two molecules from patent US20150267232A1, “IN VIVO AND IN VITRO CARBENE INSERTION AND NITRENE TRANSFER REACTIONS CATALYZED BY HEME ENZYMES” (California Institute of Technology, priority 2012, published 2015).

Holding throughout (assay type): biochemical
Assay [1] can be described thus: P450BM3 compilation plate screen (GC, cyclopropane peaks). The settings on record: P450BM3 variants.
The nature of assay [2]: Small-scale anaerobic C—H amination with purified enzymes, azide 1. The settings on record: catalyst loading 0.5 mol %; NADPH; anaerobic. As to the method: Activities are presented in TTN. […] Yields and enantioselectivies determined by HPLC analysis. * (S−R)/(S+R). nd=not determined.
Enzymes used as purified catalysts were expressed as previously described (Lewis, J. C. et al., Proc. Natl. Acad. Sci. U.S.A. 106, 16550-16555 (2009)), and were purified by anion-exchange chromatography (for holoenzymes) or Ni-NTA chromatography (for isolated heme domains). Concentrations of P450 or P411 enzymes were determined as previously reported (Omura, T. & Sato, R., J. Biol. Chem. 239, 2370-2378 (1964); Vatsis, K. P. et al., J. Inorg. Biochem. 91, 542-553 (2002)). Small-scale reactions (400 μL) were conducted in 2 mL crimp vials containing degassed buffer (0.1 M potassium phosphate pH 8.0), enzyme (0.1-0.5% catalyst loading) and oxygen depletion system (10× stock solution containing 14,000 U/mL catalase, 1,000 U/mL glucose oxidase dissolved in 0.1 M KPi pH 8.0). Enzyme (P450 or P411) solution and oxygen depletion mixture were added to the vial with a small stir bar before crimp-sealing. […] Reactions were stirred at room temperature for 24 h under positive argon pressure.
Small-scale reactions (400 μL) were conducted in 2 mL crimp vials (Agilent Technologies, San Diego, Calif.) containing buffer (0.1 M potassium phosphate pH 8.0), enzyme (0.1-0.5% catalyst loading) and oxygen depletion system (10× stock solution containing 14,000 U/mL catalase, 1,000 U/mL glucose oxidase dissolved in 0.1 M KPi pH 8.0). Enzyme (P450 or P411) solution and oxygen depletion mixture were added to the vial with a small stir bar before crimp-sealing. […] In the meantime, the headspace of the sealed 2 mL reaction vial with the P450 solution was made anaerobic by flushing argon over the protein solution (with no bubbling). The buffer/reductant/glucose solution (270 μL) was syringed into the reaction vial with continuous argon purge of the vial headspace. An arylsulfonyl azide solution in DMSO (10 μL, 80 mM) was added to the reaction vial via a glass syringe, and the reaction was left stirring for 24 h at room temperature under positive argon pressure. […] Reactions were quenched by adding 30 μL 3 M HCl under argon. To the vials were then added acetonitrile (430 uL) and internal standard (o-toluenesulfonamide 10 mM in 50% acetonitrile 50% water, 1 mM final concentration). This mixture was then transferred to a microcentrifuge tube, and centrifuged at 17,000×g for 10 minutes. A portion (20 μL) of the supernatant was then analyzed by HPLC. For LC-MS analysis, the quenched reaction mixture was extracted twice with ethyl acetate (2×350 μL), dried under a light argon stream and resuspended in 50% water-acetonitrile (100 μL). For chiral HPLC the reactions were extracted as above with ethyl acetate, dried and resuspended in DMSO (100 μL) and then C18 purified as described above. The C18 purified material was dried, and resuspended in acetonitrile, and then injected onto the chiral HPLC system for analysis. Sultam formation was quantified comparison of integrated peak areas of internal standard and sultam at 220 nm to a calibration curve made using synthetically produced sultam and internal standard.
Purified enzymes were screened for activity in small scale reactions (400 μL) under anaerobic conditions as described above. Reactions were carried out using 0.5% mol of enzyme (10 μM) with respect to the triethylsulfonyl azide substrate 1 (2 mM). Standard reaction conditions described above were employed. Diethyl benzosultam product 3 (FIG. 18) was analyzed and quantified by reversed-phase HPLC (see above).
Small-scale reactions (400 μL total volume) were set up and worked up. Control reactions were performed with both the holoenzyme (BM3 with covalently linked reductase domain) and the isolated heme domain. […] Reactions of the complete system with heme domain (CS heme) included 2 mM Na2S2O4 rather than NADPH unless otherwise indicated in the table. […]

A short description of assay [3]: N—H insertion, aniline with ethyl diazo acetate (EDA). The settings on record: protein 10 uM, EDA 8.5 mM, aniline 20 mM, Na2S2O4 10 mM, 12 h. The text has this:
We have found a variety of P450 variants to be general catalysts for carbenoid N—H insertion. We combined aniline with EDA in the presence of a reductant (Na2S2O4) under argon atmosphere and tested the mixture with seven P450BM3 variants previously identified as competent catalysts for cyclopropanation (Coelho, P. et al., Science. 2013, 339, 307-310). In choosing this set of P450s, we hypothesized that cyclopropanation activity could correlate with ability to generate the iron-carbenoid intermediate that is also necessary for N—H insertion. Whereas wild type BM3 (WT-BM3 (SEQ ID NO:1), Table 20, entry 1) provided only trace amounts of the desired product (4.3), a few variants gave 4.3 in good yields after 12 h at room temperature. In particular, variant H2-5-F10 which is derived from a thermostable P450BM3 lineage (Lewis, J. C. et al. ChemBioChem, 2010, 11, 2502-2505) and contains 15 mutation from WT-BM3 (SEQ ID NO:1), formed 4.3 in 47% yield and 473 turnovers (TTN) using 0.1% protein relative to EDA (entry 7). […] In contrast, when 1 mol % of the isolated hemin prosthetic group was used as catalyst, the single and double insertion products were produced in a 3.5 to 1 ratio (with a total product yield of 51%).
A representative procedure for P450-catalyzed N—H insertion is as follows. To an unsealed crimp vial, 60 μL of a P450 solution (67 or 133 μM) was added and the vial was sealed. A 12.5 mM solution of sodium dithionite in phosphate buffer (0.1 M, pH=8.0) was degassed by bubbling with argon in a 6 mL crimp-sealed vial. The headspace of the 2 mL vials containing P450 solution were flushed with argon (no bubbling). The buffer/dithionite solution (360 μL) was then added to each reaction vial via syringe, and the gas lines were disconnected from the vials. 10 μL of an 800 mM stock of aniline was added via a glass syringe, followed by 10 μL of a 340 mM stock of EDA (both stocks in MeOH). The reaction vials were then placed in a tray on a plate shaker and left to shake at 40 rpm. The final concentrations of the reagents were typically: 20 mM aniline, 8.5 mM EDA, 10 mM Na2S2O4, and 10 or 20 μM P450. After 12 h at 25° C., the vials were removed from the shaker and uncapped and 1 mL of cyclohexane was added, followed by 20 μL of a 20 mM solution of phenethyl alcohol (internal standard). The mixture was transferred to a 1.5 mL Eppendorf tube and vortexed and centrifuged (13,000×g, 1 min.). The organic layer was dried over sodium sulfate if necessary then analyzed by GC, with comparison to an authentically prepared sample that has been verified by proton NMR ([…], Varian, CDCl3).
Substitution is well-tolerated on the aniline partner on both the ortho and para positions. Reactions were analyzed by a Shimadzu GC with FID detector and J&W HP-5 column (30 m×0.32 mm, 0.25 μm film) and calibrated to an independently prepared sample of each product using phenethyl alcohol as internal standard. Reaction of aniline and EDA was also performed in milligram scale without any organic cosolvent to provide 4.3 in 65% isolated yield.
Calibration curves were plotted as follows. Yields of N—H insertion products were determined using calibration curves made with independently synthesized standards that have been verified by proton NMR, with comparison to known literature data (Baumann, L. K. et al. Organometallics. 2007, 26, 3995-4002; Anding, B. J. et al. Organometallics. 2013, 32, 2599-2607). Two stock solutions of product were made at 160 mM and 40 mM. To four or five samples containing 380 μL of buffer, product was added from either of the stock solutions such at a final concentration of 0.5-8.0 mM in 400 μL was obtained. 20 μL of internal standard was added to each eppendorf tube, then 1 mL of cyclohexane was added and the tubes were vortexed and centrifuged (13,000 ×g, 30 seconds). The organic layer was then analyzed by GC. The ratio of the areas under the internal standard and product peaks were plotted against the concentration for each solution. […]

B1: CYP102A3: CYP102A3, related P450 from Bacillus subtilis (protein, UniProt O08336 1-1054, looked up)
Bifunctional cytochrome …: MKQASAIPQPKTYGPLKNLPHLEKEQLSQSLWRIADELGPIFRFDFPGVSSVFVSGHNLVAEVCDEKRFDKNLGKGLQKVREFGGDGLFTSWTHEPNWQKAHRILLPSFSQKAMKGYHSMMLDIATQLIQKWSRLNPNEEIDVADDMTRLTLDTIGLCGFNYRFNSFYRDSQHPFITSMLRALKEAMNQSKRLGLQDKMMVKTKLQFQKDIEVMNSLVDRMIAERKANPDENIKDLLSLMLYAKDPVTGETLDDENIRYQIITFLIAGHETTSGLLSFAIYCLLTHPEKLKKAQEEADRVLTDDTPEYKQIQQLKYIRMVLNETLRLYPTAPAFSLYAKEDTVLGGEYPISKGQPVTVLIPKLHRDQNAWGPDAEDFRPERFEDPSSIPHHAYKPFGNGQRACIGMQFALQEATMVLGLVLKHFELINHTGYELKIKEALTIKPDDFKITVKPRKTAAINVQRKEQADIKAETKPKETKPKHGTPLLVLFGSNLGTAEGIAGELAAQGRQMGFTAETAPLDDYIGKLPEEGAVVIVTASYNGAPPDNAAGFVEWLKELEEGQLKGVSYAVFGCGNRSWASTYQRIPRLIDDMMKAKGASRLTAIGEGDAADDFESHRESWENRFWKETMDAFDINEIAQKEDRPSLSITFLSEATETPVAKAYGAFEGIVLENRELQTAASTRSTRHIELEIPAGKTYKEGDHIGILPKNSRELVQRVLSRFGLQSNHVIKVSGSAHMAHLPMDRPIKVVDLLSSYVELQEPASRLQLRELASYTVCPPHQKELEQLVSDDGIYKEQVLAKRLTMLDFLEDYPACEMPFERFLALLPSLKPRYYSISSSPKVHANIVSMTVGVVKASAWSGRGEYRGVASNYLAELNTGDAAACFIRTPQSGFQMPNDPETPMIMVGPGTGIAPFRGFIQARSVLKKEGSTLGEALLYFGCRRPDHDDLYREELDQAEQDGLVTIRRCYSRVENEPKGYVQHLLKQDTQKLMTLIEKGAHIYVCGDGSQMAPDVERTLRLAYEAEKAASQEESAVWLQKLQDQRRYVKDVWTGM
Consider B1, for which the “ee (cis)” value in assay [1] ((R,S)-(S,R), chiral β-CDX GC) is recorded as −8. Further, the de in assay [1] (diastereomeric excess = ([cis] − [trans])/([cis] + [trans])) is −74. This molecule showed an Absolute activity in assay [1] (sum of the area of the cyclopropane peaks over the area of the internal standard) of 0.004053.

B2: BM3-CIS: 9-10A TS + F87V, T268A (protein, listed as Bacillus megaterium)
chain: TIKEMPQPKTFGELKNLPLLNTDKPVQALMKIADELGEIFKFEAPGRVTRYLSSQRLIKEACDESRFDKNLSQALKFARDFAGDGLVTSWTHEKNWKKAHNILLPSFSQQAMKGYHAMMVDIAVQLVQKWERLNADEHIEVSEDMTRLTLDTIGLCGFNYRFNSFYRDQPHPFIISMVRALDEVMNKLQRANPDDPAYDENKRQFQEDIKVMNDLVDKIIADRKARGEQSDDLLTQMLNGKDPETGEPLDDGNIRYQIITFLIAGHEATSGLLSFALYFLVKNPHVLQKVAEEAARVLVDPVPSYKQVKQLKYVGMVLNEALRLWPTAPAFSLYAKEDTVLGGEYPLEKGDEVMVLIPQLHRDKTVWGDDVEEFRPERFENPSAIPQHAFKPFGNGQRACIGQQFALHEATLVLGMMLKHFDFEDHTNYELDIKETLTLKPKGFVVKAKSKKIPLGGIPSPSTEQSAKKVRKKAENAHNTPLLVLYGSNMGTAEGTARDLADIAMSKGFAPQVATLDSHAGNLPREGAVLIVTASYNGHPPDNAKQFVDWLDQASADEVKGVRYSVFGCGDKNWATTYQKVPAFIDETLAAKGAENIADRGEADASDDFEGTYEEWREHMWSDVAAYFNLDIENSEDNKSTLSLQFVDSAADMPLAKMHGAFSTNVVASKELQQPGSARSTRHLEIELPKEASYQEGDHLGVIPRNYEGIVNRVTARFGLDASQQIRLEAEEEKLAHLPLAKTVSVEELLQYVELQDPVTRTQLRAMAAKTVCPPHKVELEALLEKQAYKEQVLAKRLTMLELLEKYPACEMKFSEFIALLPSIRPRYYSISSSPRVDEKQASITVSVVSGEAWSGYGEYKGIASNYLAELQEGDTITCFISTPQSEFTLPKDPETPLIMVGPGTGVAPFRGFVQARKQLKEQGQSLGEAHLYFGCRSPHEDYLYQEELENAQSEGIITLHTAFSRMPNQPKTYVQHVMEQDGKKLIELLDQGAHFYICGDGSQMAPAVEATLMKSYADVHQVSEADARLWLQQLEEKGRYAKDVWAG
modifications: cytochrome P450NADPH-P-450 reductase precursor, cytochrome P450 (BM3), CYP102A1
notes: 9-10A TS + F87V, T268A
Take B2: the “TTN (C—H amination product 3)” value in assay [2] is reported as 9. This molecule also displayed a TTn in assay [3] of 363. Moreover, the “% Yield” value in assay [3] (product 4.3) came out at 36%.
